Tests used:
[1] = target: T1, human NPR1 expressed on CHO-K1 cells (human, UniProt P16066 33-1061); assay: cell-based or functional assay
T1 sequence: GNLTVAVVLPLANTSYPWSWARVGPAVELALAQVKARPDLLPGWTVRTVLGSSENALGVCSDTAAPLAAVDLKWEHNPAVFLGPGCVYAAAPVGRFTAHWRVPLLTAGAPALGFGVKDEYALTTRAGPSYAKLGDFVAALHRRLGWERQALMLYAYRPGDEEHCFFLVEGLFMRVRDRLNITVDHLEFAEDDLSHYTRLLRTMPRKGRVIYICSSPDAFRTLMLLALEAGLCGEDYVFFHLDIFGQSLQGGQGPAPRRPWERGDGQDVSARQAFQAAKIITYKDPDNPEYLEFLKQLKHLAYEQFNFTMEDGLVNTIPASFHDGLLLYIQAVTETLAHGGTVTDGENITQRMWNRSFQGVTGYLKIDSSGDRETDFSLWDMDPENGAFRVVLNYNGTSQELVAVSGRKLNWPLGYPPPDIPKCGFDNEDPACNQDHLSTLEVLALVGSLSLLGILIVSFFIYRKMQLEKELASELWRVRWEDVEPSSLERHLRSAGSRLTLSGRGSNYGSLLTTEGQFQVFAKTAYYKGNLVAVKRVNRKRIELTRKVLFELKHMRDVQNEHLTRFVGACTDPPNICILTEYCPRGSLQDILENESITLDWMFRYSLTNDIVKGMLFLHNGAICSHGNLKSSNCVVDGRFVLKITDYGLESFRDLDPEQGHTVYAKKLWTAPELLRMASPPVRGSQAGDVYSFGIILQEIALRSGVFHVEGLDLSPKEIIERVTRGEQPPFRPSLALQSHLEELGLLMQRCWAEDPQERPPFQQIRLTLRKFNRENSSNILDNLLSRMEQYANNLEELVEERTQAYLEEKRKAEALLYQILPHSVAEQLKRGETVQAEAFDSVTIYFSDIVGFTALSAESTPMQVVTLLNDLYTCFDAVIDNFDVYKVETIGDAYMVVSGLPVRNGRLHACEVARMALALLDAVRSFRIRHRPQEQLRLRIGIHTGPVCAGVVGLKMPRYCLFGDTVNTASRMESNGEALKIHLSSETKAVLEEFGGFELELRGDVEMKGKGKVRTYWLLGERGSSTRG

[2] = target: T1, human NPR1 expressed on CHO-K1 cells; assay: cell-based or functional assay; remark: listed apart in the source
[3] = target: T2, human NPR1 (Natriuretic Peptide Receptor 1), recombinant antigen (human, UniProt P16066 33-473); assay: ELISA, 1 uM IgG
T2 construct: also called hNPR1; NPR1-hFc
T2 sequence: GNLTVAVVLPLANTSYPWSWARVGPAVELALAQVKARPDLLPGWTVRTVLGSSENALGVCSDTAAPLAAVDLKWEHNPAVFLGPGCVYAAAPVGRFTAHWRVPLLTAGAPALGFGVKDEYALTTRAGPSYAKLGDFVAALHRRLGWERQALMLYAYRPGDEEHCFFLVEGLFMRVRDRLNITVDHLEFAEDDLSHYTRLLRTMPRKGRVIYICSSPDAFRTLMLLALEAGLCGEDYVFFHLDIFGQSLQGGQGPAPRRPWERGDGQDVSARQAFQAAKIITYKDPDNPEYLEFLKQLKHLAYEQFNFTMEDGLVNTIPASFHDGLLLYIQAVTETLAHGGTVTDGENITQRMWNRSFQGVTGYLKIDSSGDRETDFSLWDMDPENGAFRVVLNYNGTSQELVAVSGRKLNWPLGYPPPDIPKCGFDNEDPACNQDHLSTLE

[4] = target: T1, human NPR1 expressed on CHO-K1 cells; assay: cell-based or functional assay; remark: listed apart in the source
[5] = target: T1, human NPR1 expressed on CHO-K1 cells; assay: flow cytometry, 1 uM IgG
[6] = target: T3, human NPR1-ANP complex (human, UniProt P01160 124-151, limits assumed); assay: ELISA, 1 uM IgG, +100 nM ANP
T3 construct: Receptor antigen measured in the presence of ANP; also called hNPR1 + ANP; hNPR1-ANP-complex
T3 sequence: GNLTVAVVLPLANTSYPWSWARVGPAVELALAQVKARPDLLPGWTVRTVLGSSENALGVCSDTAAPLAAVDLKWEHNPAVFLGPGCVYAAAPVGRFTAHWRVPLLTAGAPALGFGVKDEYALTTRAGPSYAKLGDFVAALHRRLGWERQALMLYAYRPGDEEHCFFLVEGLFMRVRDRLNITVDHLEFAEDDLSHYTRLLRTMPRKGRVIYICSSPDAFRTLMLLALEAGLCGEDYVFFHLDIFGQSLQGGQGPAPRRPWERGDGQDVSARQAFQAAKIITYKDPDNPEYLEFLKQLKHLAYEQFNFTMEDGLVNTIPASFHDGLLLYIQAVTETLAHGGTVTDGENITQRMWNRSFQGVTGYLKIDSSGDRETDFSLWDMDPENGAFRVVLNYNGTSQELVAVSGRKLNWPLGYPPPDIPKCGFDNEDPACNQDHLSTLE
T3 sequence (peptide): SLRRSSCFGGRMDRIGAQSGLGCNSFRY

[7] = target: T4, rat NPR1-ANP complex (rat); assay: ELISA, 1 uM IgG, +100 nM ANP
T4 construct: Rat receptor antigen measured in the presence of ANP; also called rNPR1 + ANP; rNPR1-ANP-complex
T4 sequence (P18910 29-469, one chain of several): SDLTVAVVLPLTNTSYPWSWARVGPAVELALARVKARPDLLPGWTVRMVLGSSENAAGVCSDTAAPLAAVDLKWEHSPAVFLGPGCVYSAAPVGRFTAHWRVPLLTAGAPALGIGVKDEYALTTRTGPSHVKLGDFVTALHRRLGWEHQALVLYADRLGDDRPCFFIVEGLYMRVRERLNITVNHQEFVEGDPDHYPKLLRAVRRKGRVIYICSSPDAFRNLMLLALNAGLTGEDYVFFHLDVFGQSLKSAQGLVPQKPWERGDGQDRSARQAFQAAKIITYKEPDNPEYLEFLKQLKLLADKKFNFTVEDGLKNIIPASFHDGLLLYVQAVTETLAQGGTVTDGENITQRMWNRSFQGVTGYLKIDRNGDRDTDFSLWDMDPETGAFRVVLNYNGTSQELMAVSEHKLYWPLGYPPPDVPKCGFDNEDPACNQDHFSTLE

[8] = target: T5, human NPR1 expressed on CHO-K1 cells in the presence of ANP (human, UniProt P01160 124-151); assay: flow cytometry, 1 uM IgG, +100 nM ANP
T5 construct: also called hNPR1 CHO K1 + 100 nM ANP
T5 sequence: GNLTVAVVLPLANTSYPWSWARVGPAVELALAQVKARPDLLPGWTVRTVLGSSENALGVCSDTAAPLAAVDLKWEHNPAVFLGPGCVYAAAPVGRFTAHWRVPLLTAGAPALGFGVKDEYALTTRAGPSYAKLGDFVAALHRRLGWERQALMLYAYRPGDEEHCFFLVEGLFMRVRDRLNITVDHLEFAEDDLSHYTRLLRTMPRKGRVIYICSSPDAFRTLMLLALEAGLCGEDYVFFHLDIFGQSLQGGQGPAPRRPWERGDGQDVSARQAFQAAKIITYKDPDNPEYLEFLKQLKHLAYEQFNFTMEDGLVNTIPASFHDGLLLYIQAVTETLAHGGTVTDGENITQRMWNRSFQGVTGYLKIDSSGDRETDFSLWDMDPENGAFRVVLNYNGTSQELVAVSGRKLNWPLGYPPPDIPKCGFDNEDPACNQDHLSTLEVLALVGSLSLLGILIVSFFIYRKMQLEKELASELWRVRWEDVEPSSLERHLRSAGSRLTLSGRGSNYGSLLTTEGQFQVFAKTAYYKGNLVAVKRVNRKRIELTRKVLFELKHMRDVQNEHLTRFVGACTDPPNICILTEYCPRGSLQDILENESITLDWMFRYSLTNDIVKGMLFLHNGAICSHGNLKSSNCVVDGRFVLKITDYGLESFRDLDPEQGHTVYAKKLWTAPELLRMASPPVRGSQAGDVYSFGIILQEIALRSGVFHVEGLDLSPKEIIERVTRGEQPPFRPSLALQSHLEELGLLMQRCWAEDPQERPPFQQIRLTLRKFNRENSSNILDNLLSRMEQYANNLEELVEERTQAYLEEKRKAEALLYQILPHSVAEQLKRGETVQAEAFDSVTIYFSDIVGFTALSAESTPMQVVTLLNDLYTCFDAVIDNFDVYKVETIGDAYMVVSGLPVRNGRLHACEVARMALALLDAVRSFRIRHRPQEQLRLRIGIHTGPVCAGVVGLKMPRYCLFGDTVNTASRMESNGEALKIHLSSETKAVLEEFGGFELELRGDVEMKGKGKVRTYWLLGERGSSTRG
T5 sequence (peptide): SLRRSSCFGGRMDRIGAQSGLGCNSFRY

[9] = target: T4, rat NPR1-ANP complex; assay: ELISA, IgG titrated on the antigen with 250 fold molar excess of ANP
[10] = target: T3, human NPR1-ANP complex; assay: ELISA, IgG titrated on the antigen with 250 fold molar excess of ANP [cont.]

B1: WW03 FabCys (Fab, V domains shown)
VH: QVQLLESGGGLVQPGGSLRLSCAASGFTFSSYWMNWVRQAPGKGLEWVSAISSDGSYTYYADSVKGRFTISRDNSKNTLYLQMNSLRAEDTAVYYCARDRYSMIYSYGAGAFDYWGQGTLVTVSS
VL: DIQMTQSPSSLSASVGDRVTITCRASQGISSYLAWYQQKPGKAPKLLIYTASTLQSGVPSRFSGSGSGTDFTLTISSLQPEDFATYYCMQSYEKPRTFGQGTKVEIK
cGMP conc [nM] at 2 uM FabCys, +0.075 nM ANP [1]: 108 nM
cGMP conc [nM] at 2 uM FabCys, without ANP [1]: 32 nM

B2: YY06 FabCys (Fab, V domains shown)
VH: EVQLLESGGGLVQPGGSLRLSCAASGFTFSSYAISWVRQAPGKGLEWVSAISGSGGSTYYAESVKGRFTISRDNSKNTLYLQMNSLRAEDTAVYYCARPYLGDRRSYGFDHWGQGTLVTVSS
VL: QSALTQPASVSGSPGQSITISCTGTSSDVGSYNLVSWYQQHPGKAPKLMIYEGSKRPSGVSNRFSGSKSGNTASLTISGLQAEDEADYYCSSYGFHIVVVVFGGGTKLTVL
cGMP conc [nM] at 1 uM FabCys, +0.075 nM ANP [2]: 75 nM
cGMP conc [nM] at 1 uM FabCys, without ANP [2]: 20 nM

B3: YY01 IgG (YY01_LALA) (antibody, V domains shown)
VH: EVQLVESGGGLVQPGGSLRLSCAASGFTFSSYWISWVRQAPGKGLEWVANIKQSGSETYYVESVKGRFTISRDNAKNSLYLQMNSLRAEDTAVYYCARSLRRRSTEHAGFDVWGQGTLVTVSS
VL: DIQMTQSPSSLSASVGDRVTITCRASQGISNYLAWYQQKPGKVPKLLIYAASTLQSGVPSRFSGSGSGTDFTLTISSLQPEDVATYYCQQADKFPYTFGQGTKVEIKR
ELISA IgG binding at 1 uM IgG (unit not given) [3]: 54
cGMP conc [nM] at 1 uM IgG, +0.075 nM ANP [4]: 14 nM
cGMP conc [nM] at 1 uM IgG, without ANP [4]: 5 nM
flow cytometry S/BG [5]: 35 S/BG
ELISA IgG binding at 1 uM IgG (unit not given) [6]: 76
ELISA IgG binding at 1 uM IgG (unit not given) [7]: 50
flow cytometry S/BG [8]: 21 S/BG

B4: XX04 IgG (antibody, V domains shown)
VH: QVQLLESGGGLVQPGGSLRLSCAASGFTFSSYWMNWVRQAPGKGLEWVSAISSDGSYTYYADSVKGRFTISRDNSKNTLYLQMNSLRAEDTAVYYCARDRYSMIYSYGAGAFDYWGQGTLVTVSS
VL: DIQMTQSPSSLSASVGDRVTITCRASQGISSYLAWYQQKPGKAPKLLIYTASTLQSGVPSRFSGSGSGTDFTLTISSLQPEDFATYYCQQEWVKPRTFGQGTKVEIKR
notes: also called XX04_LALA
EC50 (read off the curve) [9]: ~0.2 nM

B5: YY04 IgG (YY04_LALA) (antibody, V domains shown)
VH: EVQLVESGGGLVKPGGSLRLSCAASGFTFSNYWISWVRQAPGKGLEWVGRIKSKTYGGTTDYAEPVKGRFTISRDDSKNTLYLQMNSLKTEDTAVYYCAREKYSIRARGHGDYGFDVWGQGTLVTVSS
VL: DIQMTQSPSSLSASVGDRVTITCRASQGISNYLAWYQQKPGKVPKLLIYAASTLQSGVPSRFSGSGSGTDFTLTISSLQPEDVATYYCQQGYHAPFTFGQGTKVEIKR
ELISA IgG binding at 1 uM IgG (unit not given) [6]: 60
ELISA IgG binding at 1 uM IgG (unit not given) [7]: 54
flow cytometry S/BG [8]: 33 S/BG
EC50 (read off the curve) [10]: ~0.3 nM

B6: XX03 IgG (antibody, V domains shown)
VH: EVQLLESGGGLVQPGGSLRLSCAASGFTFSSYWMNWVRQAPGKGLEWVSVIESKGNYIFYADSVKGRFTISRDNSKNTLYLQMNSLRAEDTAVYYCARDRYSMIYSYGAGAFDYWGQGTLVTVSS
VL: DIQMTQSPSSLSASVGDRVTITCRASQGISSYLAWYQQKPGKAPKLLIYTASTLQSGVPSRFSGSGSGTDFTLTISSLQPEDFATYYCMQSYEKPRTFGQGTKVEIKR
notes: also called XX03_LALA
EC50 (read off the curve) [9]: ~0.2 nM

Reference: patent US20200392225A1 (Novartis, published 2020)
